These results are taken from patent US20170015742A1 (published 2017).

The chains are these.
B1: CODV022 cross-over DVD-Ig (PR-1577056) (bispecific antibody, human IgG1, kappa, L234A L235A)
heavy: EVQLVQSGSELKKPGASVKVSCKASGYTFTNYGMYWVRQAPGQGLEWMGWINTETGKPTYADDFKGRFVFSLDTSVSTAYLQISSLKAEDTAVYYCARTNYYYRSYIFYFDYWGQGTMVTVSSGGGGSGGGEFVLTQSPGTLSLSPGERATLSCERSSGDIGESYVSWYQQKPGQAPRLVIYADDQRPSGIPDRFSGSGSGTDFTLTISRLEPEDFAVYYCQSYDINIDIVFGGGTKVEIKGGGSGASTKGPSVFPLAPSSKSTSGGTAALGCLVKDYFPEPVTVSWNSGALTSGVHTFPAVLQSSGLYSLSSVVTVPSSSLGTQTYICNVNHKPSNTKVDKKVEPKSCDKTHTCPPCPAPEAAGGPSVFLFPPKPKDTLMISRTPEVTCVVVDVSHEDPEVKFNWYVDGVEVHNAKTKPREEQYNSTYRVVSVLTVLHQDWLNGKEYKCKVSNKALPAPIEKTISKAKGQPREPQVYTLPPSREEMTKNQVSLTCLVKGFYPSDIAVEWESNGQPENNYKTTPPVLDSDGSFFLYSKLTVDKSRWQQGNVFSCSVMHEALHNAYTQKSLSLSPGK
light: EVTLRESGPALVKPTQTLTLTCTFSGFSLSTYGMGVGWIRQPPGKALEWLANIWWDDDKYYNPSLKNRLTISKDTSKNQVVLTMTNMDPVDTATYYCARIESIGTTYSFDYWGQGTMVTVSSGGGGSDTVLTQSPATLSLSPGERATLSCRASESVSTHMHWYQQKPGQAPRLLIYGASNLESGVPARFSGSGSGTDFTLTISSLEPEDFAVYFCQQSWNDPFTFGQGTKLEIKGGSRTVAAPSVFIFPPSDEQLKSGTASVVCLLNNFYPREAKVQWKVDNALQSGNSQESVTEQDSKDSTYSLSSTLTLSKADYEKHKVYACEVTHQGLSSPVTKSFNRGEC
B2: CODV003 cross-over DVD-Ig (PR-1565044) (bispecific antibody, human IgG1, kappa, L234A L235A)
heavy: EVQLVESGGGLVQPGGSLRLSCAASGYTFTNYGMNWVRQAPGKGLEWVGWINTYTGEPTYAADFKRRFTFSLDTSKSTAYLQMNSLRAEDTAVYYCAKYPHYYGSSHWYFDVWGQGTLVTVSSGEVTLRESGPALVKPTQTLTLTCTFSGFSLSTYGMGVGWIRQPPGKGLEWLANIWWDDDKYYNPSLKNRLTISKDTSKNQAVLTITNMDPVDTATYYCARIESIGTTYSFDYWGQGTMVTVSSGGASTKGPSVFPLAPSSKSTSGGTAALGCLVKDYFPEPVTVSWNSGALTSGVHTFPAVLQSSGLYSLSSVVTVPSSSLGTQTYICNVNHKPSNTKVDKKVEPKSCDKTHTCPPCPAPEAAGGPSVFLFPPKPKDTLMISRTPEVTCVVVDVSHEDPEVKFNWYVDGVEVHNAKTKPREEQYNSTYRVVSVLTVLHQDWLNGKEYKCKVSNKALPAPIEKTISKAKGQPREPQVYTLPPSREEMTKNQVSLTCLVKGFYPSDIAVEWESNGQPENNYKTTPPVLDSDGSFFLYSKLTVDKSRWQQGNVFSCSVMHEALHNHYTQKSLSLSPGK
light: DFQLTQSPSSLSASVGDRVTITCERSSGDIGDSYVSWYQQKPGKAPKNVIYADDQRPSGVPSRFSGSGSGNSASLTISSLQPEDFATYFCQSYDINIDIVFGQGTKVEIKGGGSGGGDIQMTQSPSSLSASVGDRVTITCSASQDISNYLNWYQQKPGKAPKVLIYFTSSLHSGVPSRFSGSGSGTDFTLTISSLQPEDFATYYCQQYSTVPWTFGQGTKVEIKGGGSGRTVAAPSVFIFPPSDEQLKSGTASVVCLLNNFYPREAKVQWKVDNALQSGNSQESVTEQDSKDSTYSLSSTLTLSKADYEKHKVYACEVTHQGLSSPVTKSFNRGEC
B3: CODV017 cross-over DVD-Ig (PR-1571830) (bispecific antibody, human IgG1, kappa, L234A L235A)
heavy: DTVLTQSPATLSLSPGERATLSCRASESVSTHMHWYQQKPGQAPRLLIYGASNLESGVPARFSGSGSGTDFTLTISSLEPEDFAVYFCQQSWNDPFTFGQGTKLEIKGGGSGGGEFVLTQSPGTLSLSPGERATLSCERSSGDIGDSYVSWYQQKPGQAPRLVIYADDQRPSGIPDRFSGSGSGTDFTLTISRLEPEDFAVYYCQSYDINIDIVFGGGTKVEIKGGGSGASTKGPSVFPLAPSSKSTSGGTAALGCLVKDYFPEPVTVSWNSGALTSGVHTFPAVLQSSGLYSLSSVVTVPSSSLGTQTYICNVNHKPSNTKVDKKVEPKSCDKTHTCPPCPAPEAAGGPSVFLFPPKPKDTLMISRTPEVTCVVVDVSHEDPEVKFNWYVDGVEVHNAKTKPREEQYNSTYRVVSVLTVLHQDWLNGKEYKCKVSNKALPAPIEKTISKAKGQPREPQVYTLPPSREEMTKNQVSLTCLVKGFYPSDIAVEWESNGQPENNYKTTPPVLDSDGSFFLYSKLTVDKSRWQQGNVFSCSVMHEALHNAYTQKSLSLSPGK
light: EVTLRESGPALVKPTQTLTLTCTFSGFSLSTYGMGVGWIRQPPGKALEWLANIWWDDDKYYNPSLKNRLTISKDTSKNQVVLTMTNMDPVDTATYYCARIESIGTTYSFDYWGQGTMVTVSSGEVQLVQSGSELKKPGASVKVSCKASGYTFTNYGMYWVRQAPGQGLEWMGWINTETGKPTYADDFKGRFVFSLDTSVSTAYLQISSLKAEDTAVYYCARTNYYYRSYIFYFDYWGQGTMVTVSSGGRTVAAPSVFIFPPSDEQLKSGTASVVCLLNNFYPREAKVQWKVDNALQSGNSQESVTEQDSKDSTYSLSSTLTLSKADYEKHKVYACEVTHQGLSSPVTKSFNRGEC
B4: DVD3906 DVD-Ig (PR-1565035) (bispecific antibody, human IgG1, kappa, L234A L235A)
heavy: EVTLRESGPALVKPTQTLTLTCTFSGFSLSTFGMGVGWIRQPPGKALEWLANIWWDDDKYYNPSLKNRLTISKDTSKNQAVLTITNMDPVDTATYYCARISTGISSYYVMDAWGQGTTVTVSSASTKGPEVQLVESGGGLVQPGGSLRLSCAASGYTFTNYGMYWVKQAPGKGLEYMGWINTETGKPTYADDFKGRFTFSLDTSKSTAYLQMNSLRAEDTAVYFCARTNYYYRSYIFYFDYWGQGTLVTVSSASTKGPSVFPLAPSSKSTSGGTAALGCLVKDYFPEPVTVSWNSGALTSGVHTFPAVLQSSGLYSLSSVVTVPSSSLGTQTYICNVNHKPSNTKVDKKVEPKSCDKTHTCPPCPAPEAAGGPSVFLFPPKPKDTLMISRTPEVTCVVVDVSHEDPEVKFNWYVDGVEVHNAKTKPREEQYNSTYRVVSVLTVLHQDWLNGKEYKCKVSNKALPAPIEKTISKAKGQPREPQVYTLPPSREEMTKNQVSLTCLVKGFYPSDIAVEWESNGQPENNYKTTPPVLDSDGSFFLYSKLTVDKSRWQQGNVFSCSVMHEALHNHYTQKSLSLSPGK
light: DFQLTQSPSSLSASVGDRVTITCERSSGDIGDTYVSWYQQKPGKAPKNVIYGNDQRPSGVPSRFSGSGSGNSATLTISSLQPEDFATYFCQSYDSDIDIVFGQGTKVEIKGTVAAPSVFIFPPDTQLTQSPSSLSASVGDRVTISCRASESVSTHMHWYQQKPGKAPKLLIYGASNLESGVPSRFSGSGSGTDFTLTISSLQPEDFATYFCQQSWNDPFTFGQGTKVEIKRTVAAPSVFIFPPSDEQLKSGTASVVCLLNNFYPREAKVQWKVDNALQSGNSQESVTEQDSKDSTYSLSSTLTLSKADYEKHKVYACEVTHQGLSSPVTKSFNRGEC
B5: CODV018 cross-over DVD-Ig (PR-1571831) (bispecific antibody, human IgG1, kappa, L234A L235A)
heavy: EFVLTQSPGTLSLSPGERATLSCERSSGDIGDSYVSWYQQKPGQAPRLVIYADDQRPSGIPDRFSGSGSGTDFTLTISRLEPEDFAVYYCQSYDINIDIVFGGGTKVEIKGGGSGGGDTVLTQSPATLSLSPGERATLSCRASESVSTHMHWYQQKPGQAPRLLIYGASNLESGVPARFSGSGSGTDFTLTISSLEPEDFAVYFCQQSWNDPFTFGQGTKLEIKGGGSGASTKGPSVFPLAPSSKSTSGGTAALGCLVKDYFPEPVTVSWNSGALTSGVHTFPAVLQSSGLYSLSSVVTVPSSSLGTQTYICNVNHKPSNTKVDKKVEPKSCDKTHTCPPCPAPEAAGGPSVFLFPPKPKDTLMISRTPEVTCVVVDVSHEDPEVKFNWYVDGVEVHNAKTKPREEQYNSTYRVVSVLTVLHQDWLNGKEYKCKVSNKALPAPIEKTISKAKGQPREPQVYTLPPSREEMTKNQVSLTCLVKGFYPSDIAVEWESNGQPENNYKTTPPVLDSDGSFFLYSKLTVDKSRWQQGNVFSCSVMHEALHNAYTQKSLSLSPGK
light: EVQLVQSGSELKKPGASVKVSCKASGYTFTNYGMYWVRQAPGQGLEWMGWINTETGKPTYADDFKGRFVFSLDTSVSTAYLQISSLKAEDTAVYYCARTNYYYRSYIFYFDYWGQGTMVTVSSGEVTLRESGPALVKPTQTLTLTCTFSGFSLSTYGMGVGWIRQPPGKALEWLANIWWDDDKYYNPSLKNRLTISKDTSKNQVVLTMTNMDPVDTATYYCARIESIGTTYSFDYWGQGTMVTVSSGGRTVAAPSVFIFPPSDEQLKSGTASVVCLLNNFYPREAKVQWKVDNALQSGNSQESVTEQDSKDSTYSLSSTLTLSKADYEKHKVYACEVTHQGLSSPVTKSFNRGEC
B6: DVD3904 DVD-Ig (PR-1565031) (bispecific antibody, human IgG1, kappa, L234A L235A)
heavy: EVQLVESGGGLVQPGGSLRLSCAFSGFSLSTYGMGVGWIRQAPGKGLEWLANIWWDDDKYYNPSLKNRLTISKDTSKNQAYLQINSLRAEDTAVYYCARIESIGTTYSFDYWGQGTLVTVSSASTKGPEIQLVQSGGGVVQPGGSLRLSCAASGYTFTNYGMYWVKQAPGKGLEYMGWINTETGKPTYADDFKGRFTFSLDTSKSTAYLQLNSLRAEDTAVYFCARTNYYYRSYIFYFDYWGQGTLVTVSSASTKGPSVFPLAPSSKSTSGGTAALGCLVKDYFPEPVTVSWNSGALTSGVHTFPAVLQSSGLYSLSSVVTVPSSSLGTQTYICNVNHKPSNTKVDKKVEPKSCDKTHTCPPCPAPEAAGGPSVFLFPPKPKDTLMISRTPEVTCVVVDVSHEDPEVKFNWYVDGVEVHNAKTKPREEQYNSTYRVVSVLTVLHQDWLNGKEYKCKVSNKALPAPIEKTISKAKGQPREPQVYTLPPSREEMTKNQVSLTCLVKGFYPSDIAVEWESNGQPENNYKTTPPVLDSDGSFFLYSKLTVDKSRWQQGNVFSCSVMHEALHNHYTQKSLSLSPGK
light: DFQLTQSPSSLSASVGDRVTITCERSSGDIGDSYVSWYQQKPGKAPKNVIYADDQRPSGVPSRFSGSGSGNSASLTISSLQPEDFATYFCQSYDINIDIVFGQGTKVEIKGTVAAPSVFIFPPDTVLTQSPSTLSASPGERATISCRASESVSTHMHWYQQKPGQAPKLLIYGASNLESGVPSRFSGSRSGTDFTLTISSLQPEDFAVYFCQQSWNDPFTFGQGTKVEIKRTVAAPSVFIFPPSDEQLKSGTASVVCLLNNFYPREAKVQWKVDNALQSGNSQESVTEQDSKDSTYSLSSTLTLSKADYEKHKVYACEVTHQGLSSPVTKSFNRGEC
B7: DVD3905 DVD-Ig (PR-1565032) (bispecific antibody, human IgG1, kappa, L234A L235A)
heavy: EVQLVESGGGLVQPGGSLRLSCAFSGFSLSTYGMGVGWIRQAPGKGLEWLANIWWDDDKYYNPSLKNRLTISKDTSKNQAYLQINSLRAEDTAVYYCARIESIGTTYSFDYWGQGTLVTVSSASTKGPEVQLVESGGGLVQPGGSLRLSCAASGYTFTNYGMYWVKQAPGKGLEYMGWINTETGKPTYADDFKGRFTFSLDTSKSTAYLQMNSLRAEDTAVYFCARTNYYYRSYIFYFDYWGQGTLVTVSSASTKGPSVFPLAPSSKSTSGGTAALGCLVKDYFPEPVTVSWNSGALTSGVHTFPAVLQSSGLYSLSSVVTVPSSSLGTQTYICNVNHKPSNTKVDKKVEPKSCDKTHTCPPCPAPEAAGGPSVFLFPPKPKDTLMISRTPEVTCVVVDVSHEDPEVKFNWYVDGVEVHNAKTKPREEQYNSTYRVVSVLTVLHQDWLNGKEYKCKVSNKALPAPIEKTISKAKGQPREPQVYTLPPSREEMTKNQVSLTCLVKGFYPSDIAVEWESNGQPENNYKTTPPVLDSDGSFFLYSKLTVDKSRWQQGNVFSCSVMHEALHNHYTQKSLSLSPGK
light: DFQLTQSPSSLSASVGDRVTITCERSSGDIGDSYVSWYQQKPGKAPKNVIYADDQRPSGVPSRFSGSGSGNSASLTISSLQPEDFATYFCQSYDINIDIVFGQGTKVEIKGTVAAPSVFIFPPDTQLTQSPSSLSASVGDRVTISCRASESVSTHMHWYQQKPGKAPKLLIYGASNLESGVPSRFSGSGSGTDFTLTISSLQPEDFATYFCQQSWNDPFTFGQGTKVEIKRTVAAPSVFIFPPSDEQLKSGTASVVCLLNNFYPREAKVQWKVDNALQSGNSQESVTEQDSKDSTYSLSSTLTLSKADYEKHKVYACEVTHQGLSSPVTKSFNRGEC
B8: CODV006 cross-over DVD-Ig (PR-1565084) (bispecific antibody, human IgG1, kappa, L234A L235A)
heavy: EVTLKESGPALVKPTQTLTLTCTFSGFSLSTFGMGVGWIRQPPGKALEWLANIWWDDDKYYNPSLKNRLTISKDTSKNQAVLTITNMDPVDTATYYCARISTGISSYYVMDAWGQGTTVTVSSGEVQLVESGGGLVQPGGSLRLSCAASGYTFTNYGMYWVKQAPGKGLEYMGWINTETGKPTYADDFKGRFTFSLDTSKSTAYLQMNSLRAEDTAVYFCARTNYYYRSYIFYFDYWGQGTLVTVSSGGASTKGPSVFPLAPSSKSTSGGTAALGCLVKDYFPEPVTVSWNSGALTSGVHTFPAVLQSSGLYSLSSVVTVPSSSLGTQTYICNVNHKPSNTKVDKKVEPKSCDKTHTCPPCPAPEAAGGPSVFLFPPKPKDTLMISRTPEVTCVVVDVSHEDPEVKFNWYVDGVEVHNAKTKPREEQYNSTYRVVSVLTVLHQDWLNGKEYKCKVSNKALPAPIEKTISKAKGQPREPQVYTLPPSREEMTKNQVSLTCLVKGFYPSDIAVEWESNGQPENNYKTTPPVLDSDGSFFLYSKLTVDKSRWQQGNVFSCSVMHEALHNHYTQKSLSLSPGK
light: DTQLTQSPSSLSASVGDRVTISCRASESVSTHMHWYQQKPGKAPKLLIYGASNLESGVPSRFSGSGSGTDFTLTISSLQPEDFATYFCQQSWNDPFTFGQGTKVEIKGGGSGGGDFQLTQSPSSLSASVGDRVTITCERSSGDIGDTYVSWYQQKPGKAPKNVIYGNDQRPSGVPSRFSGSGSGNSATLTISSLQPEDFATYFCQSYDSDIDIVFGQGTKVEIKGGGSGRTVAAPSVFIFPPSDEQLKSGTASVVCLLNNFYPREAKVQWKVDNALQSGNSQESVTEQDSKDSTYSLSSTLTLSKADYEKHKVYACEVTHQGLSSPVTKSFNRGEC
B9: CODV005 cross-over DVD-Ig (PR-1565083) (bispecific antibody, human IgG1, kappa, L234A L235A)
heavy: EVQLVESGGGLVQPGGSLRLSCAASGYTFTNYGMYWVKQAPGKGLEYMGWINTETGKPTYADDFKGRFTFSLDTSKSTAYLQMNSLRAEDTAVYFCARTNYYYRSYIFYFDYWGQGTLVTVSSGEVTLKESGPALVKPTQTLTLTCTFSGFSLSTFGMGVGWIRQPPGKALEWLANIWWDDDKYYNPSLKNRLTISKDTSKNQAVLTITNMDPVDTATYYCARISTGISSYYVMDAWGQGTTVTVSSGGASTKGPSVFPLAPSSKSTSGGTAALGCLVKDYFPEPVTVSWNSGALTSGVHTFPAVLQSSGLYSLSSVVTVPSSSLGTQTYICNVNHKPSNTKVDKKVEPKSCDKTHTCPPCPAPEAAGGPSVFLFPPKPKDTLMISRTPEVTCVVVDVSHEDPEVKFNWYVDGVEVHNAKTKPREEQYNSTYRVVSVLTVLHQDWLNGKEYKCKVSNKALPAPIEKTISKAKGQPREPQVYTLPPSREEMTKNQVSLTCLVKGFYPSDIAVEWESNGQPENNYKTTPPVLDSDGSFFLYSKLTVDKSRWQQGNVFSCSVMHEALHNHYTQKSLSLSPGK
light: DFQLTQSPSSLSASVGDRVTITCERSSGDIGDTYVSWYQQKPGKAPKNVIYGNDQRPSGVPSRFSGSGSGNSATLTISSLQPEDFATYFCQSYDSDIDIVFGQGTKVEIKGGGSGGGDTQLTQSPSSLSASVGDRVTISCRASESVSTHMHWYQQKPGKAPKLLIYGASNLESGVPSRFSGSGSGTDFTLTISSLQPEDFATYFCQQSWNDPFTFGQGTKVEIKGGGSGRTVAAPSVFIFPPSDEQLKSGTASVVCLLNNFYPREAKVQWKVDNALQSGNSQESVTEQDSKDSTYSLSSTLTLSKADYEKHKVYACEVTHQGLSSPVTKSFNRGEC
B10: CODV007 cross-over DVD-Ig (PR-1565085) (bispecific antibody, human IgG1, kappa, L234A L235A)
heavy: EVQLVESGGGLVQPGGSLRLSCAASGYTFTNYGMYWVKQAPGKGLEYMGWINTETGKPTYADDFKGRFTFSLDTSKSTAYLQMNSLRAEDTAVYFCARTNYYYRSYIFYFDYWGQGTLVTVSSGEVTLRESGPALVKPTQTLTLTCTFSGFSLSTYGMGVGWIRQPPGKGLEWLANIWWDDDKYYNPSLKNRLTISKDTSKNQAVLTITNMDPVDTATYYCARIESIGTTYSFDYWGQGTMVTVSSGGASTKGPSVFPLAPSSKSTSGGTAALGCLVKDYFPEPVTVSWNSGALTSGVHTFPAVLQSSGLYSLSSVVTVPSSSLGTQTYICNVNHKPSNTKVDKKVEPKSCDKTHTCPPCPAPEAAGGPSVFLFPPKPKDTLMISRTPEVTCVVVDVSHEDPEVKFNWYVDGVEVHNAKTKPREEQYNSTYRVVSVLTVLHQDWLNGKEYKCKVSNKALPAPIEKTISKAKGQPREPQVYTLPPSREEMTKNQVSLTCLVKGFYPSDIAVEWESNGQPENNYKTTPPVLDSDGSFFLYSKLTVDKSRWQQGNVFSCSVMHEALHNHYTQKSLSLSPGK
light: DFQLTQSPSSLSASVGDRVTITCERSSGDIGDSYVSWYQQKPGKAPKNVIYADDQRPSGVPSRFSGSGSGNSASLTISSLQPEDFATYFCQSYDINIDIVFGQGTKVEIKGGGSGGGDTQLTQSPSSLSASVGDRVTISCRASESVSTHMHWYQQKPGKAPKLLIYGASNLESGVPSRFSGSGSGTDFTLTISSLQPEDFATYFCQQSWNDPFTFGQGTKVEIKGGGSGRTVAAPSVFIFPPSDEQLKSGTASVVCLLNNFYPREAKVQWKVDNALQSGNSQESVTEQDSKDSTYSLSSTLTLSKADYEKHKVYACEVTHQGLSSPVTKSFNRGEC
B11: CODV004 cross-over DVD-Ig (PR-1565051) (bispecific antibody, human IgG1, kappa, L234A L235A)
heavy: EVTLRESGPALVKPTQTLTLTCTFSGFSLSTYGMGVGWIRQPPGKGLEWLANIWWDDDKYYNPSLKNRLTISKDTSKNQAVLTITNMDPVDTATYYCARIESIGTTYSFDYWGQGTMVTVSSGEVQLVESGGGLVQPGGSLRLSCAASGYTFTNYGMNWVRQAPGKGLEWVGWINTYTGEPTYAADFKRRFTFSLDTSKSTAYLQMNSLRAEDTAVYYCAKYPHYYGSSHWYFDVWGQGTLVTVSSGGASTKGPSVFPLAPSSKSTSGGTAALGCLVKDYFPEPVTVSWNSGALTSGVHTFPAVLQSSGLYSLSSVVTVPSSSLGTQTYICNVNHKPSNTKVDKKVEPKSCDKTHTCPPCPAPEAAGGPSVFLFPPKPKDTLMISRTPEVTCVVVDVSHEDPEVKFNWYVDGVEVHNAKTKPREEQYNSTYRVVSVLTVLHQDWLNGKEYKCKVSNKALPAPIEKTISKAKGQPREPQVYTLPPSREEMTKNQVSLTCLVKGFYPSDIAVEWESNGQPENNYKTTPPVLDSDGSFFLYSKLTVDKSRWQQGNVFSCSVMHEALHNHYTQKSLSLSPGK
light: DIQMTQSPSSLSASVGDRVTITCSASQDISNYLNWYQQKPGKAPKVLIYFTSSLHSGVPSRFSGSGSGTDFTLTISSLQPEDFATYYCQQYSTVPWTFGQGTKVEIKGGGSGGGDFQLTQSPSSLSASVGDRVTITCERSSGDIGDSYVSWYQQKPGKAPKNVIYADDQRPSGVPSRFSGSGSGNSASLTISSLQPEDFATYFCQSYDINIDIVFGQGTKVEIKGGGSGRTVAAPSVFIFPPSDEQLKSGTASVVCLLNNFYPREAKVQWKVDNALQSGNSQESVTEQDSKDSTYSLSSTLTLSKADYEKHKVYACEVTHQGLSSPVTKSFNRGEC

Bounds are passed on as bounds.

recombinant human PDGF-BB, sequence (P01127 82-190 limits assumed): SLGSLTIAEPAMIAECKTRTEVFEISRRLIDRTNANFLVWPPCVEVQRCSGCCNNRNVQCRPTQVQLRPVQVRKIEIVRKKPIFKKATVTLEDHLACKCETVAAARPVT

This assay addresses recombinant human PDGF-BB (human, UniProt P01127 82-190). In words: cell-based or functional assay.
With B1, the “NIH-3T3 hPDGF-BB Potency IC50” value was determined as 0.059 nM.

As for B2, the “NIH-3T3 hPDGF-BB Potency IC50” value is greater than 5 nM.

For B3, the “NIH-3T3 hPDGF-BB Potency IC50” value is greater than 5 nM.

Regarding B4, the “NIH-3T3 hPDGF-BB Potency IC50” value was greater than 5 nM.

For the molecule B5, the “NIH-3T3 hPDGF-BB Potency IC50” value was greater than 5 nM.

Take B6: the “NIH-3T3 hPDGF-BB Potency IC50” value is greater than 5 nM.

Take B7: the “NIH-3T3 hPDGF-BB Potency IC50” value is greater than 5 nM.

Turning to B8, the “NIH-3T3 hPDGF-BB Potency IC50” value is greater than 5 nM.

Turning to B9, the “NIH-3T3 hPDGF-BB Potency IC50” value was greater than 5 nM.

In the case of B10, the “NIH-3T3 hPDGF-BB Potency IC50” value is greater than 5 nM.

With B11, the “NIH-3T3 hPDGF-BB Potency IC50” value was greater than 5 nM.
